Experimental data from US8748112B2, “Methods of determining cancer cell responsiveness to a notch inhibitory agent” (Trojan Technologies, Ltd., priority 2007, dated 2014).

Assays:
MDA-MB231 cells = experiment: Cellular localization by immunostaining (nuclear transduction); assay type: cell-based, human; settings: 50 μM, two hours, serum free media, anti-His immunostaining
Experimental: To determine the cellular localization of the ANTP/DN-MAML (TR4) fusion protein, immunostaining on human mammary epithelial breast cancer MDA-MB231 cells was carried out. MDA-MB231 cells were cultured to sub-confluence in Dulbecco's modified Eagle's medium containing 10% calf serum at 37° C. The coverslips with cells attached were washed, and incubated with ANTP/DN-MAML purified fusion protein in serum free media for two hours at a concentration of 50 μM. Cells were washed three times and fixed with 4% paraformaldehyde for 15 minutes. After brief washes, the coverslips were incubated with blocking solution and subsequently with anti-His primary and FITC-conjugated secondary antibody.

Notch (NICD) = experiment: Notch inhibition, Western blot of activated Notch (NICD); assay type: cell-based, human; settings: MDA-MB231 cells treated for two hours
Experimental: To investigate the potential role of ANTP/DN-MAML to inhibit Notch signaling activation the high metastatic mammary epithelial cell line MDA-MB231 cell line was treated with the ANTP/DN-MAML fusion protein for two hours. Total protein was extracted from cells using SDS buffer. Total protein concentrations were determined using the BCA protein assay kit. Total protein ([…]) was diluted in 5× sample buffer ([…] Tris-HCl pH 6.8, 500 mM dithiotheitol, 10% SDS, 0.5% bromophenol blue, 50% glycerol), heated at 100° C. and analyzed by SDS-PAGE. Electrophoresis was carried out in running buffer (25 mM Tris HCl, 250 mM glycine, 0.1% SDS) for 60 minutes or until the bromophenol blue had run out of the gel. Separated proteins were transferred to nitrocellulose membrane in ice cold transfer buffer (39 mM glycine, 48 mM Tris HCl) electrophoretically for 90 minutes at 100V. Western blots were probed with the […] in blocking buffer at 4° C. over night with anti-Mouse IgG peroxidase produced in goat […] (Sigma A9917). Nitrocellulose membranes were washed 4 times for five minutes each in TBS-T buffer. […]

[1] = Immunogenicity in immuno-competent mice by ELISA; assay type: in vivo; settings: intravenous 0.2 ml, 2.5 mg/ml without adjuvant, once per day for 5 days; 2.5 mg per week; monitored over 4 months
Experimental: The immunogenicity of ANTP/DN-MAML was investigated in immuno-competent mice. Animals were immunized intravenously with ANTP/DN-MAML (0.2 ml, 2.5 mg/ml) without adjuvant, once per day for 5 days. Mice were bled once per week over a 4-month period, and the immune response monitored by ELISA. Blood samples were diluted 1:10, 1:100 and 1:1000 in PBS, and the immune response was monitored by ELISA on native ANTP/DN-MAML (coated at 50 μg/ml) and detected using anti-mouse antibodies. […] This dose is equivalent to 100 mg/kg in humans.

[2] = test system: MDA MB231 xenograft tumor; experiment: Penetration into outer, middle and inner core of xenografted mammary tumors (Western blot, immunohistochemistry); assay type: in vivo, CD1 Nude mice; settings: tail vein injection
Experimental: Purified ANTP/DN-MAML fusion protein was injected into CD1 Nude mice xenografted with MDA MB231 human mammary epithelial breast cancer cells via the tail vein. The mice were perfused for 5 min with phosphate-buffered saline and sacrificed 2 hours following the injection. The tumor was removed and dissected under a stereoscope to separate the outer, middle, and inner core of the tumor. The ANTP/DN-MAML in each core of the tumor was determined by Western blot.
In order to establish the localization of ANTP/DN-MAML within the tumors, immunohistochemistry on the above mammary cancer samples was performed.

Breast cancer xenografts = experiment: In vivo tumor reduction in breast cancer xenografts; parameters: species or system mice; settings: 4 mg/kg every two days, n=6 per group, vs PBS control
Experimental: Breast cancer xenografts were established in mice. The mice were divided into two groups, and injected every two days with either PBS as a control, or with 4 mg/kg ANTP/DN-MAML fusion protein (n=6 per group) (FIG. 4A). Control mice treated with PBS developed rapidly growing tumors. The control mice were euthanized after twenty days. […] (FIG. 4B).

[3] = In vivo maximum tolerated dose study; parameters: species or system mice
Experimental: ANTP/DN-MAML tail vein administration was started when the mice reached an age of 12 weeks. Mice were continuously monitored for signs of hypoglycemic shock or drug side effects and were sacrificed if body weight loss exceeded 15%. Various dosages were tested starting at 4 mg/kg/day. […] This experiment was terminated by sacrificing the animals three days after injection.

[4] = Biodistribution by Western blot of organs after intravenous injection; assay type: in vivo, CD1 nude mice; settings: 4 mg/kg intravenously via tail vein, 2 hours after injection
Experimental: To determine whether Antennapedia could be used to deliver the DN-MAML in vivo, CD1 nude mice were injected intravenously via tail vein with 4 mg/kg of the ANTP/DN-MAML fusion protein. The mice were perfused for 5 min with phosphate-buffered saline and sacrificed 2 hours following the injection. The expression of ANTP/DN-MAML in each organ was determined by Western blot analysis. […] As such, the targeted delivery system of the present invention may have wide applications in the administration of therapeutic proteins to the central nervous system.

Colo205 tumors = experiment: Colon cancer xenograft model; assay type: in vivo, female nude mice; settings: 0.2 ml of 4 mg/ml every other day, Colo205 xenografts
Experimental: High levels of Notch are expressed in colon cancer cells. ANTP/DN-MAML was administered to female nude mice bearing xenografted Colo205 tumors. Injections of 0.2 ml of 4 mg/ml ANTP/DN-MAML protein were administered to the mice every other day. This dose is equivalent to 2 g of ANTP/DN-MAML fusion protein per patient.

| Substance | cellular localization (MDA-MB231 cells) | downregulation of Notch activation (NICD) (Notch (NICD)) | immune response (ELISA) [1] | detection in outer, middle and inner core of the tumor ([2]; 2 hours, Western blot, vs PBS control) | localization within the tumors (immunohistochemistry) ([2]; MDA MB231 xenograft) | tumor volume (Breast cancer xenografts) | side effects at the maximum tolerated dose ([3]; 57 mg/kg/day, tail vein) | maximum tolerated dose ([3]; tail vein administration, mice aged 12 weeks) | detection in brain (blood-brain barrier crossing) [4] | signal in liver, kidney, heart, lung, spleen and brain tissue vs PBS injected mice ([4]; Western blot) | colon cancer cell growth in vivo (Colo205 tumors) |
| --- | --- | --- | --- | --- | --- | --- | --- | --- | --- | --- | --- |
| ANTP/DN-MAML: 14.18 KDa fusion protein of antennapedia homeodomain, 62 amino acid DN/MAML sequence and pentahistidine tag (SEQ ID NO.:2) | nuclear localization | Downregulation of Notch activation occurred | does not raise an immune response | detected in the outer, middle and inner core of the tumor | Intense ANTP/DN-MAML staining within the nucleus of mammary cancer cells | no increase in tumor volume after thirty-two days | loss of appetite, weight loss and hypoglycemia | 57 mg/kg/day | detected in the brains | significant signal | reduced colon cancer cell growth in vivo |
| ANTP: Trojan peptide; 60 amino acid Drosophila antennapedia homeodomain (SEQ ID NO.:4), used alone as control [reference compound] | – | not in cells treated with ANTP alone | – | – | – | – | – | – | – | – | – |
